This experiment concerns the target canine CD20 (canine) (UniProt Q3C2E2). Kind of experiment: flow cytometry on canine PBMCs without 18F6 (control), FSC-H/SSC-H subset, Event Count 9100; FL1-H = 2o FITC alone, FL2-H = CD21-PE.

From US20240124602A1 come the findings set out here.

UniProt Q3C2E2, sequence (Q3C2E2 whole entry): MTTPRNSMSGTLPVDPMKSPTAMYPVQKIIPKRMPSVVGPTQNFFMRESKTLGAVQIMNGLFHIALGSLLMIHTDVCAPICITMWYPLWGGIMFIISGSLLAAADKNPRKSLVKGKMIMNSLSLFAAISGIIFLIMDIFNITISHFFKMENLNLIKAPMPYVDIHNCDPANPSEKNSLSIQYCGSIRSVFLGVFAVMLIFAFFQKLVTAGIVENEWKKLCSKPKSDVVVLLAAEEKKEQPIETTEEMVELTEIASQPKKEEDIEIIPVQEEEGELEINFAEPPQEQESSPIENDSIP

On to 2o FITC (antibody), for which the quadrant number, lower left (FL1-H low, FL2-H low); unit not given came out at 72.5; the quadrant number, lower right (FL1-H low, FL2-H high); unit not given worked out at 22.9; the quadrant number, upper left (FL1-H high, FL2-H low); unit not given was 2.18; the quadrant number, upper right (FL1-H high, FL2-H high); unit not given came out at 2.37.
